The data set in a line: yeast display, Sf9 membrane polyspecificity reagent, FACS + sequencing; frameworks hold sequencing errors. The method, boiled down: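 Genes from sorted yeast were amplified by colony PCR, read by MiSeq 2 × 250 sequencing and filtered on CDR length. These cells carried a synthetic nanobody library in Saccharomyces cerevisiae BJ5465 and were sorted by FACS into low and high (top ~1%) gates on anti-HA and streptavidin fluorescence. Polyreactivity is labelled according to the gate of origin.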
With “QVQLVESGGRLVQAGGSLRLSCAASGRIFVVNAMGWYRQAPGKEREFVAAITDNTGSTYYADSVKGRFTISRDNAKNTGYLQMNSLNPEDTAVYYCAAYGYSKDLWNFYYWGQGTQVTVSS”, the “polyreactivity (PSR sort gate)” value is reported as “low polyreactivity”.
Turning to “QVQLVESGGGLVQAGGSLRLSCAASGRIFRYNTMGWYRQAPGKERELVAAITYRGGSTYYADSVKGRFTISRDNAKNTVYLQMNSLKPEDTAVYYCAASPARYWYGGKEYDYWGQGTQVTVSS”, the “polyreactivity (PSR sort gate)” value is listed as “high polyreactivity”.
The value for “QVQLVESGGGLVQAGGSLRLSCAASGRTLVDYGMGWYRQPPGKERELVAVITSGGSTYYADSVKGRFTISRDNAKNTVYLVMNSLKPEDTAVYYCNARHPYYTVQTGGYDYWGQGTQVTVSS” was “low polyreactivity”; that for “QLQLVESGGGLVQAGGSLRLSCAASGFTSDVYAKVSYRQAPGKERELVAEISARGGSTYYADSVKGRFTISRDNAKNTVYLQMNSLKPEDTAVYYCAAEVYVGTIGFYADFFYYPVYYWGQGTQVTVSS” was “low polyreactivity”.
Take “QVQLVESGGGLVQAGGSLRLSCAASGFTFSDYAMGWYRQAPGKERELVAAISSSGGSTYYADSVKGRFTISRDNAKNTVYLQMNSLKPEDNAVYYCAASSYSFRYRYDTWWYYYWGQGTQVTVSS”: the “polyreactivity (PSR sort gate)” value is on record as “high polyreactivity”.
The result for “QVQLVESEGGLVQAGGSLRISCAASGRNFRTYDMGWYRQAPGKERELVAAISEEGGYTYYADSVKGRFTISRDNAKNTVYLQMNSLKPEDTAVYYCAKDRPGPLRWWFLYGYWGQGTQVTVSS” reads “low polyreactivity”; that for “QVQLVESCGGLDQAGGSLRLSCAASGSMFGYAMGWYRQAPGKERELVASTTYADSVKGRFTISRDNAKNTVYLQMNSLKPEDTAVYDCAADDWYTVEMEYWGQGTLVTVSS”, “low polyreactivity”.
The result for “QGQLVESGGGLGQAGGSLRLSSAASGRTFGRYAMGWYRQAPGNERELVAAISYSTDSTYYADSVKGRFTISRDNAKNTVYLQMNSLKPEDTAVYYCATDSVNVGSYVGDKHDYWGQGSQVTVSS” reads “low polyreactivity”.
On to “QVQLVESGGGLVQAGGSLRLSCAASGRIFWTYAMGWYRQAPGKERELVAAITSGGSTYYADSVKGRVTISRDNAKNTVYLLMNSLKPEDTAVYYCAATSYYYNFMEHDYWGQGTQVTVSS”, for which the “polyreactivity (PSR sort gate)” value is “high polyreactivity”.
The value for “QVQLVESGGGLVQAGGSLRLSCAASGFTFAVYAMGWYRQAPGKERELVAAISDSGGSTYYADSVKGRFTISRDNAKNTVYLQMNSLKPEDTAVYYCNRDWIVSGYYAYYEFDYWGQGTQVTVSS” was “low polyreactivity”.
Turning to “QVQLVESGGGLVQAGGSLRLSCAASGRIFYKNVMGWYRPAPGKERELVATITRRGGRTFYADSVKGRFTISRDNAKNTVYLQMNSLKPEDTAVYFCNVLPQPGKESTGDDYWGQGTQVTVSS”, the “polyreactivity (PSR sort gate)” value is given as “high polyreactivity”.
With “QVQLVESGGGLVQAGGSLRLSCAASGLTLYKNGMGWYRQAPGKERELVARITSGGRTYYADSVKGRFTISRDNAKNTVYLQMNSLKPEDTAVYYCNAVKSYASLCAGFYYWGQGTQVTVSS”, the “polyreactivity (PSR sort gate)” value is given as “high polyreactivity”.
Regarding “QVQLVESGGGLVQAGGSLRLSCAASGIIFLDYVMGWYRQAPGKERELVAAISRSGGTTYYADSVKGRFTISRDNAKNTVYLQMNSLKPEDTAVYYCAVRSYRDTRFYYWGQGTKVTVSS”, the “polyreactivity (PSR sort gate)” value is listed as “high polyreactivity”.
Take “QLQLVESGGGLVQAGGSLRLSCAASGFTFQYYAMGWYRQAPCKERELVAVISRSGGRTYYADSVKGRFTISRDNAKYTVYLQMYSLKPEDTAVYYCAALSQPGQRDDNQYDYWGQGTQVTVSS”: the “polyreactivity (PSR sort gate)” value is recorded as “high polyreactivity”.
The result for “QVQLVESGGGLVQAGGILRLSCAASGRTFYYYAMGWYRQAPGKERELVAAISWGGGRTYYADSVKGRFTISRDNAKNTVYLHMNSLKPEDTAVYYCDTTAYNGYDYWGQGTQVTVSS” reads “high polyreactivity”; that for “QVHLVESGGGLVQAGGSLLLSCSASGSIFTFNAMGWYRQAPGKERELVAAISSGGNTYYADSEKGRFTISRDNAKNSVYLQMNSLKPEDTAVYYCAAVRRTDGDGKYYYWGQGTEVTVSS”, “high polyreactivity”.
For “QVQLVESGGGLVQAGGSLRLSCAASGRIIQGYAIGWYRQAPGKERELVDAIRSGSGSTYYADSVKGRFTISRDNAKNTVYLQMNSLKPEDTAVYYCAADRYYWGQGTQVTVSS”, the “polyreactivity (PSR sort gate)” value is listed as “low polyreactivity”.
On to “QVQLVESGGGLVQAGGSLRLSCAASGRTFAYNTMGWYRQAPGKERELVAAITWSGGGTYYADSVKGRFTISRDNAKNTVYLQMNRLKPEDTAVYFCAVEYASPRARYRYYYWGQGTQVSVSS”, for which the “polyreactivity (PSR sort gate)” value is recorded as “low polyreactivity”.
Take “QVHLVESGGGLVQAGGSLLLSCDASGSIIKQYAMGWYRQAPGKERELVASIRWRDGSTYYADSVKGRFTISRDNAMNTVYLQMNSLKPEDTAVYYCAAYYCVWRYKYYYWGQGTQVTVSS”: the “polyreactivity (PSR sort gate)” value is recorded as “high polyreactivity”.
On to “QVQLVESGGGLVQAGGSLRLSCAASGPIVAYNAMGWYRQAPGKERELVAAISYSGGSTYYADSVKGRFTISRDNAKNTVYLQMNSLKPEDTAVYYCNAVYRYRTYRYDYWGQGTQVTVSS”, for which the “polyreactivity (PSR sort gate)” value was “high polyreactivity”.
The value for “QVQLVESGGGLVQAGGSLRLSCAASGSTFYDYVMGWYRQAPGKERELVAAITGDGTTDYADSVKGRFTISRDNAKNTVYLQMNSLKPEDTAVYYCNADISLDYDYWGQGTQVTVSS” was “low polyreactivity”; that for “QVQLVESGGGLVQAGGSLRLSCAASGIIFAWYVMGWYRQAPGKERELVAAITQSGGSTFYADSVKGRFTISRDNAKNTVYLQMNSLKPEDTAVYYCNTEDFFNVPEMDSWGQGTQVTVSS” was “low polyreactivity”.
The value for “QVQLVESGGGLVQAGGSLRLSCAASGFTFSSYTMGWYRQAPGKEREFVAAISRRTGRTYYADSVKGRFTISRDYAKNTVYLQMNSLKPEDTAVFYCAADLYYYGFFWDFGDGFDYWGQGTQVTVSS” was “high polyreactivity”; that for “QVQLEESGGRLVQAGCSLRLSCAASGYIFRKYAMGWYRQAPGKEWELVADISSSGGSTYYADSVKGRFTISRDNAKNTVYLQMNSLKPEDTAGYYCAKDRKSSRRINRMDYWGQGTQVTVSS” was “high polyreactivity”; that for “QVQLVESGGGLVQAGGSLRLSCAASGITFKTYTMGWYRQAPGKERELVAAITRSGAGTYYADSVKGRFTISRDNAKNTVDLQMNSLKPEDTAVYYCAARVRWGYRYGYWGQGTQVTVSS” was “high polyreactivity”.
The value for “QVQLVESGGGLVQAGGSLRLSCAASGSTFRWYAMGWYRQAPGTERELVAAISVSTGSTYYADSVKGRFTISRDNAKNTVYVQMNTLKPEDTGVYYCNKVYGWRQFDYWGQGTQVTVSS” was “high polyreactivity”.
Take “QVQLVESGGGLVQAGGSLRLSCAASGSISASYAMGWYRQAPGKERELVAAITSGGSTYYADSVKGRFTISRDNAKNTVYLQMNSLKPEDTAVYYCAKRPKRTYYPHIGYDYWGQGTQVTVSS”: the “polyreactivity (PSR sort gate)” value is listed as “low polyreactivity”.
As to “QVQLVESGGGLVQAGGSLRLSCAASGSTFESNAMGWYRQAPGKERELVAAISYIDTSTYYADSVKGRFTISRDNAKNTVYLQMNSLKPEDTAVYYCATDVDWAYGYQYEYWGQGTQVTVSS”, the “polyreactivity (PSR sort gate)” value was “low polyreactivity”.
The value for “QVQLVESGGGLVQAGGSLRLSCAASGRTFYYNAMGWYRQAPGKEREFVAAISYGGTTTYYADSVKGRFTISRDNAKNTVYLQMNSLKPEDTAVYYCAAGYTWRQSWYPFDYWGQGSQVTVSS” was “high polyreactivity”.
The result for “QVQLVESAGDLVQAGRTLRFSCAPSGSIFKPNAMGWYRQAPGKERELVDDISRSGTSTYYADSVKGRFTISRDIAKNTVYLQMNSLKPEDTAVFNCATRYSGDYGYWGQGTQVTVSS” reads “high polyreactivity”; that for “QVQLVESVGGLVQAGGSLRLSCAASGFIFSYYAMGRYRQAPGKERELVATINFSGGRTYYADSVKGRFTISRDNAKNTVYLQMNSLKPEDTAVYYCAAVARSRAAPGVGYWGQGTQVTVSS”, “high polyreactivity”; that for “QVQLVESGGGLVQAGGSLRLSCAASGRTFWPYAMGWYRQAPGKERELVAAINWGGGSTYYADSVKGRFTISRDNAKNTVYLQMNSLKPEDTAVYYCAADVGRNKMDYWGQGTQVTVSS”, “low polyreactivity”.
The value for “QVQLVESGGGLVQAGGSLRLSCAASGNTFDVYVMGWYRQAPGKERELVAAINKGGGRTYYADSVKGRFTISRDNAKNTVYLQMNSLKPEDTAVYYCAAVSPKYESSYYYWGQGTQVTVSS” was “high polyreactivity”; that for “QVQLVESGGGLVQAGGSLRLICAASGFTFDFYAMGWYRQAPGKERELVATISYSGASTYYADSVKGRFTISRDNAKNTVYLEMNSLKPEVTAVYYCAAYYPTRYQYGTIWVAYNYWGQGTQVTVSS” was “low polyreactivity”.
For “QVQLVESGGGLVHAGGSLRLSCPASGRIFPHYAMGWYRQAPGKEREMVAAISGRGGNTYYADSVKGRFTISRDNAKNTVYLQMNSLKPEDTAVYYCAADVSWRPSWGYDYWGQGTQVTVSS”, the “polyreactivity (PSR sort gate)” value was “high polyreactivity”.
For the sequence “QVQLVESGGGLVQAGGSLRLSCAASGRIFGGYAMGWYRQAPGKERELVAAISWRGGTTYYADSVKGRFTISRDNAKNTVYLQMNSLKQEDTAVYYCNADVVRYRHWHRGDYWGQGTQVTVSS”, the “polyreactivity (PSR sort gate)” value is “low polyreactivity”.
As to “QVQLVESGGGLVQAGGSLRLSCAASGSTFLGYTMGWSRQAPGKERELVATITRRGGRTSYADSVKGRFTISRDNAKNTVYLQMNSLKPEDTAVYYCATDSKRSSVPWNTYDYWGQGTQVTVSS”, the “polyreactivity (PSR sort gate)” value is listed as “high polyreactivity”.
For “QVQLVESGGGLVQAGGSLRLSCAASGSILIGNAMGWYRQAPGKERELVAAIRSGGSTNYADSVKGRFTISRDNAKNTVYLHMNSLKPEDTAVYYCARDVYVYYPYYAYDYWGQGTQVTVSS”, the “polyreactivity (PSR sort gate)” value is listed as “low polyreactivity”.
For “QVQLVESGGGLVQAGGSLRLSSAASGSTFVQNAIGWYRQAPGKERELVAAISRTGGSTYSAHSVKGRFTIYRDNAKNTVYLEMNSLKPEDTAVYYFAKRPPHYSWPTFIEFGSWGLGTQVTVSS”, the “polyreactivity (PSR sort gate)” value was “high polyreactivity”.
The value for “QVQLVESGGGLVQAGGSLRLTCAASGSIIKRNAMGWYRQAPGKERELVASISSGGSTKYADSVKGRFTISRDNAKTTVYLQMNSLKPEDTAVYYCPKRSSQTRRAYDYWGQGTQVTVSS” was “low polyreactivity”.

(Values after the nanobody polyreactivity screen of Harvey et al. (2022).)
